Reference: paper PMC10774645, “Characterization and stabilization of GluLm and its application to deglycosylate dietary flavonoids and lignans” (Applied Microbiology and Biotechnology, 2024)

Legend:
GluLm = biological target: T1, GluLm (Limosilactobacillus mucosae, UniProt A0A508YIL6); experiment: inhibition of pNPG hydrolysis, p-nitrophenol release at […] nm; assay type: biochemical; conditions: 100000 µM; free enzyme; 1 mmol L^−1 pNPG; 100 mmol L^−1 sodium phosphate pH 6.5; 37°C; 5 min
T1 construct: gene bglB; full-length, C-terminal poly-His tag (pLATE31), expressed in E. coli BL21(DE3), GraviTrap purified, 81 kDa
T1 sequence (A0A508YIL6 1-735): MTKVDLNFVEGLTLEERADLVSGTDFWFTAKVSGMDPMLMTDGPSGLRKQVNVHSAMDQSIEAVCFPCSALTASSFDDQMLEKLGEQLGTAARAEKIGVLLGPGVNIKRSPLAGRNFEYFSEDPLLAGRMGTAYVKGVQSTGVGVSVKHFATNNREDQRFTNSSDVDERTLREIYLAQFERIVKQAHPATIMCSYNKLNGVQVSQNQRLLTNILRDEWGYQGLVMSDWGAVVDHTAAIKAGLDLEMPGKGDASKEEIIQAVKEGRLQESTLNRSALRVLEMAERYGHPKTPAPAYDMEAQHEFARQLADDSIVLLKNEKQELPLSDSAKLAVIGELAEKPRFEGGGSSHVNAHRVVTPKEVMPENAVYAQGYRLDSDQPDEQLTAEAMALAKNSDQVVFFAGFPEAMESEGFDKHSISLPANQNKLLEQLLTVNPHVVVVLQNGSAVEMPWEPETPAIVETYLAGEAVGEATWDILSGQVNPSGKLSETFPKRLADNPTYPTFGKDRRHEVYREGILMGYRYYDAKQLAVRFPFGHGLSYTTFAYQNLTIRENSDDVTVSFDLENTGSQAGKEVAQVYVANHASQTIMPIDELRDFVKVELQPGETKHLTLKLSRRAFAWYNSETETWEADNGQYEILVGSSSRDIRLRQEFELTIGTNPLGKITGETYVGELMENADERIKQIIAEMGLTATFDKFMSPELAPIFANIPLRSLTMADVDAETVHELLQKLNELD

purified protein [1] = substrate: C[C@@H]1O[C@@H](Oc2ccc([N+](=O)[O-])cc2)[C@@H](O)[C@H](O)[C@@H]1O; experiment: purified protein; assay type: biochemical, Limosilactobacillus mucosae; conditions: free enzyme; 0.1 to 10 mmol L^−1 substrate; pH and temperature not restated for kinetics
purified protein [2] = substrate: C[C@H]1O[C@@H](Oc2ccc([N+](=O)[O-])cc2)[C@H](O)[C@@H](O)[C@H]1O; experiment: purified protein; assay type: biochemical, Limosilactobacillus mucosae; conditions: free enzyme; 0.1 to 10 mmol L^−1 substrate; pH and temperature not restated for kinetics
purified protein [3] = substrate: O=[N+]([O-])c1ccc(O[C@@H]2OC[C@@H](O)[C@H](O)[C@H]2O)cc1; experiment: purified protein; assay type: biochemical, Limosilactobacillus mucosae; conditions: free enzyme; 0.1 to 10 mmol L^−1 substrate; pH and temperature not restated for kinetics
purified protein [4] = substrate: O=[N+]([O-])c1ccc(O[C@@H]2O[C@H](CO)[C@@H](O)[C@H](O)[C@H]2O)cc1; experiment: purified protein; assay type: biochemical, Limosilactobacillus mucosae; conditions: free enzyme; 0.1 to 10 mmol L^−1 substrate; pH and temperature not restated for kinetics
purified protein [5] = substrate: O=[N+]([O-])c1ccc(O[C@@H]2O[C@H](CO)[C@H](O)[C@H](O)[C@H]2O)cc1; experiment: purified protein; assay type: biochemical, Limosilactobacillus mucosae; conditions: free enzyme; 0.1 to 10 mmol L^−1 substrate; pH and temperature not restated for kinetics

With `OC[C@H]1OC(O)[C@H](O)[C@@H](O)[C@@H]1O` (stereo partly drawn) [glucose] as the molecule, how does the “Relative activity (%)” value (GluLm) read?
The value was 48.3 ± 5.7%.

B1: GluLm (Limosilactobacillus mucosae) (protein)
chain: MTKVDLNFVEGLTLEERADLVSGTDFWFTAKVSGMDPMLMTDGPSGLRKQVNVHSAMDQSIEAVCFPCSALTASSFDDQMLEKLGEQLGTAARAEKIGVLLGPGVNIKRSPLAGRNFEYFSEDPLLAGRMGTAYVKGVQSTGVGVSVKHFATNNREDQRFTNSSDVDERTLREIYLAQFERIVKQAHPATIMCSYNKLNGVQVSQNQRLLTNILRDEWGYQGLVMSDWGAVVDHTAAIKAGLDLEMPGKGDASKEEIIQAVKEGRLQESTLNRSALRVLEMAERYGHPKTPAPAYDMEAQHEFARQLADDSIVLLKNEKQELPLSDSAKLAVIGELAEKPRFEGGGSSHVNAHRVVTPKEVMPENAVYAQGYRLDSDQPDEQLTAEAMALAKNSDQVVFFAGFPEAMESEGFDKHSISLPANQNKLLEQLLTVNPHVVVVLQNGSAVEMPWEPETPAIVETYLAGEAVGEATWDILSGQVNPSGKLSETFPKRLADNPTYPTFGKDRRHEVYREGILMGYRYYDAKQLAVRFPFGHGLSYTTFAYQNLTIRENSDDVTVSFDLENTGSQAGKEVAQVYVANHASQTIMPIDELRDFVKVELQPGETKHLTLKLSRRAFAWYNSETETWEADNGQYEILVGSSSRDIRLRQEFELTIGTNPLGKITGETYVGELMENADERIKQIIAEMGLTATFDKFMSPELAPIFANIPLRSLTMADVDAETVHELLQKLNELD
notes: full-length, C-terminal poly-His tag (pLATE31), expressed in E. coli BL21(DE3), GraviTrap purified, 81 kDa
Which results are given for B1?
Km (purified protein [1]): 2.82 ± 0.24 mmol/L; Vmax (purified protein [1]): 0.06 µmol/min; kcat (purified protein [1]): 7.8 s⁻¹; kcat/Km (purified protein [1]): 2700 M⁻¹ s⁻¹; Km (purified protein [2]): 1.03 ± 0.04 mmol/L; Vmax (purified protein [2]): 1.64 µmol/min; kcat (purified protein [2]): 223 s⁻¹; kcat/Km (purified protein [2]): 218000 M⁻¹ s⁻¹; Km (purified protein [3]): 0.76 ± 0.05 mmol/L; Vmax (purified protein [3]): 4.07 µmol/min; kcat (purified protein [3]): 552 s⁻¹; kcat/Km (purified protein [3]): 729000 M⁻¹ s⁻¹; Km (purified protein [4]): 0.10 ± 0.01 mmol/L; Vmax (purified protein [4]): 33.8 µmol/min; kcat (purified protein [4]): 9120 s⁻¹; kcat/Km (purified protein [4]): 8.66e+07 M⁻¹ s⁻¹; Km (purified protein [5]): 2.81 ± 0.18 mmol/L; Vmax (purified protein [5]): 0.86 µmol/min; kcat (purified protein [5]): 117 s⁻¹; kcat/Km (purified protein [5]): 41900 M⁻¹ s⁻¹
